The results in this text go back to patent publication US20260226161A1.

In assay [1] the target is NKG2A expressed on KHYG-1 cells (endogenous) (human) (UniProt P26715).
Assay [2] has the same target. The experiment in a line: flow cytometry on KHYG-1 cells (endogenous NKG2A), MFI against Log [Ab] M.
Assay [3] deals with Human NKG2A & CD94 with mouse IgG2a Fc tag (AcroBiosystems) (human) (UniProt P26715). Kind of assay: SPR (Carterra), antibody on chip, soluble antigen.
Assay [4] addresses cynomolgus NKG2A/CD94 (soluble antigen of the equilibrium assay) (cynomolgus) (UniProt Q68VD2). Kind of assay: SPR equilibrium response, Langmuir isotherm; antibody on chip, soluble antigen.
Assay [5] has as its target NKG2A expressed on KHYG-1 cells (endogenous) (human) (UniProt P26715). Kind of assay: competition by flow cytometry on KHYG-1 cells: antibody varied, binding of HLA-E tetramer to NKG2A read as MFI. For orientation: Flow cytometry measures light scatter and fluorescence of single cells or particles in a stream.

Chain of Human NKG2A & CD94 with mouse IgG2a Fc tag (AcroBiosystems) (human) (P26715 94-233 limits assumed, chain 1 of 2): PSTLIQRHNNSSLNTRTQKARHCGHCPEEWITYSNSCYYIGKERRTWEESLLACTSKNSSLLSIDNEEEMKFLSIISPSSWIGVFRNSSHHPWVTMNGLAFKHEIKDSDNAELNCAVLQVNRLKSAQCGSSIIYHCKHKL
Chain of Human NKG2A & CD94 with mouse IgG2a Fc tag (AcroBiosystems) (human) (Q13241 32-179 limits assumed, chain 2 of 2, further chain): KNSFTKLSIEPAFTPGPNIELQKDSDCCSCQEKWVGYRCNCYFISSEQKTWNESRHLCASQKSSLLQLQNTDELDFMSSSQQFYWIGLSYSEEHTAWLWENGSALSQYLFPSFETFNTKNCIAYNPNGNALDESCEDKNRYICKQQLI
Chain of NKG2A expressed on KHYG-1 cells (endogenous) (human) (P26715 whole entry, chain 1 of 2): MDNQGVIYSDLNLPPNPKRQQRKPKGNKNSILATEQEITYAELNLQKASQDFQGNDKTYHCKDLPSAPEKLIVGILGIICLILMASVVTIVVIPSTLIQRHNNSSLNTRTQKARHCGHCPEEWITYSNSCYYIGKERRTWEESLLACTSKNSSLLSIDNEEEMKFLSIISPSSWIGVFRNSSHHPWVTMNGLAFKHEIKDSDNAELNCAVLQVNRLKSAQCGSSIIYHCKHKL
Chain of NKG2A expressed on KHYG-1 cells (endogenous) (human) (Q13241 whole entry, chain 2 of 2, further chain): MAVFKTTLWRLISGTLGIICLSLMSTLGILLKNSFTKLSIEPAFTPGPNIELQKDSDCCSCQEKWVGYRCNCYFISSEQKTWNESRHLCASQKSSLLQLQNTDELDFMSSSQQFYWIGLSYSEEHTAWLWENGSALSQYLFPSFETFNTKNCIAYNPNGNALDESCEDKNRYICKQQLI
Chain of cynomolgus NKG2A/CD94 (soluble antigen of the equilibrium assay) (cynomolgus) (NKG2A, as listed by the source limits assumed, chain 1 of 2): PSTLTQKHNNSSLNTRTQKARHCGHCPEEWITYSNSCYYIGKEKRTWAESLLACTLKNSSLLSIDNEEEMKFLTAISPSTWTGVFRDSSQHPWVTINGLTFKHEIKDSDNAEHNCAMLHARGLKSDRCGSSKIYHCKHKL
Chain of cynomolgus NKG2A/CD94 (soluble antigen of the equilibrium assay) (cynomolgus) (CD94, as listed by the source limits assumed, chain 2 of 2): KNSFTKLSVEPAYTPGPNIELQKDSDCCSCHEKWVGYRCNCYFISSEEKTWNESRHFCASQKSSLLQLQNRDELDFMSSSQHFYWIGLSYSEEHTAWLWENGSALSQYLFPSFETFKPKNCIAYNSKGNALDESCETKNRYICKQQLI

B1: Benchmark anti-NKG2A antibody (IgG4) (antibody, INN chains, looked up, V domains shown)
VH: QVQLVQSGAEVKKPGASVKVSCKASGYTFTSYWMNWVRQAPGQGLEWMGRIDPYDSETHYAQKLQGRVTMTTDTSTSTAYMELRSLRSDDTAVYYCARGGYDFDVGTLYWFFDVWGQGTTVTVSS
VL: DIQMTQSPSSLSASVGDRVTITCRASENIYSYLAWYQQKPGKAPKLLIYNAKTLAEGVPSRFSGSGSGTDFTLTISSLQPEDFATYYCQHHYGTPRTFGGGTKVEIK
modifications: IgG4
The term EC50 (read off the curve) denotes the concentration needed to bring the measured effect to its halfway point. A low value points to higher potency in that assay. Broadly, the Kd is the free concentration of one partner at which half of the binding sites on the other are occupied at equilibrium, for simple one-to-one binding. Read a high Kd as weaker binding. Usually koff stands for a measure of how fast the partners let go of each other. Read a low koff as slow dissociation. For orientation: kon means the rate constant with which the complex forms. Turning to B1, the % double-positive events (Q2: PD-L1+ LCL721.221-hPD-L1 cells coupled to NKG2A+ KHYG-1 cells), antibody at 2 nM; monospecific control, no bridging [cont.] in assay [1] is 0.59%. For the same molecule, the EC50 (read off the curve) in assay [2] is 0.04 nM. In assay [3], this molecule returned a Kd of 0.06 nM, a koff of 3e-05 s⁻¹ and a kon of 510000 M⁻¹ s⁻¹. This molecule also registered a Kd in assay [4] of 11 nM. The molecule further came in with an IC50 (read off the curve) in assay [5] of 0.3 nM.
